According to US9605064B2, “Methods and compositions for treatment of skin disorders” (AbbVie Biotechnology Ltd, priority 2006, dated 2017):
Marks after values point to notes of the source that are not given here.

Columns and labels:
[1] = system: patients with moderate to severe chronic plaque psoriasis; test: Adverse events, open-label extension of CHAMPION
[2] = system: adult patients with moderate to severe chronic plaque psoriasis; test: Adverse events, REVEAL 52-week Phase III trial
[3] = system: patients with moderate to severe chronic plaque psoriasis; test: Adverse events, CHAMPION 16-week Phase III trial; settings: 16-week study
Description: The study was a multi-center, 16-week, randomized controlled Phase III trial. The main inclusion criteria included: • Clinical diagnosis of psoriasis for ≧1 year • Affected body surface area (BSA)≧10% • Psoriasis Area and Severity Index (PASI)≧10 The main exclusion criteria was previous use of MTX or systemic anti-TNF therapy.

[4] = Adalimumab serum concentrations by ELISA, Phase II trial; assay type: in vivo, human; settings: for steady-state concentration: 40 mg eow dosing; for mean adalimumab serum concentration: 80 mg at Week 0 and 40 mg at Week 1
[5] = system: patients with moderate to severe chronic plaque psoriasis; test: PASI response, open-label extension of CHAMPION (methotrexate to adalimumab transition); assay type: in vivo, human
C-reactive protein (CRP) = test: C-reactive protein concentrations, post-hoc analysis of REVEAL; assay type: in vivo, human; settings: for mean change from baseline in CRP: 16 wks
Description: Changes in CRP concentrations were also evaluated in subgroups with or without self-reported psoriatic arthritis (PsA) and with or without obesity (by body mass index [BMI]).

[6] = through Week 24 of the OLE (N = 95), AEs occurring ≧5% of patients
[7] = through Week 24 of the OLE (N = 95), MTX patients transitioned to adalimumab 40 mg eow
[8] = Adalimumab Treatment Group (540.5 PY)
[9] = Adalimumab Treatment Group, 52 weeks (540.5 PYs)
[10] = Period A, adalimumab-treated patients
[11] = MTX N = 110, Adalimumab N = 107
[12] = methotrexate-treated patients after 12 weeks of adalimumab therapy
[13] = methotrexate-treated patients after 24 weeks of adalimumab therapy

Adalimumab: a human anti-TNF mAb, described in U.S. Pat. No. 6,090,382 as D2E7 (HUMIRA, Abbott Laboratories)
rebound ([1]; first 24 weeks of the OLE): No cases of rebound were observed
Injection-site reaction, Percentage of Patients [1, 6]: 5%
Nasopharyngitis, Percentage of Patients [1, 6]: 6%
AEs leading to withdrawal, Percentage of Patients [1, 7]: 1%
Any AE, Percentage of Patients [1, 7]: 47%
Any malignancy, Percentage of Patients [1, 7]: 0%
Rebound psoriasis, Percentage of Patients [1, 7]: 0%
Serious AE, Percentage of Patients [1, 7]: 5%
lymphomas ([2]; 52-week study): no lymphomas were diagnosed
opportunistic infection ([2]; 52-week study): One case of oral candidiasis
tuberculosis ([2]; 52-week study, patient PPD+ve at baseline, non-compliant with INH prophylaxis): one case of presumptive tuberculosis
Allergic Reaction, rate [2, 8]: 0.002 Event/PY
Congestive Heart Failure, rate [2, 8]: 0.002 Event/PY
Demyelinating Disorder, rate [2, 8]: 0 Event/PY
Injection Site Reaction, rate [2, 8]: 0.017 Event/PY
Lupus-like Syndrome, rate [2, 8]: 0 Event/PY
Lymphoma, rate [2, 8]: 0 Event/PY
Malignancies, excluding NMSC + lymphoma, rate [2, 8]: 0.004 Event/PY
Non-melanoma skin cancers, rate [2, 8]: 0.013 Event/PY
Tuberculosis (TB), rate [2, 8]: 0.002 Event/PY
AEs leading to withdrawal, rate [2, 9]: 0.078 Event/PY
Any AE, rate [2, 9]: 3.991 Event/PY
Serious AEs, rate [2, 9]: 0.061 Event/PY
Allergic Reaction, rate ([2]; Period A (250.2 PY)): 0.004 Event/PY
Congestive Heart Failure, rate ([2]; Period A (250.2 PY)): 0.004 Event/PY
Demyelinating Disorder, rate ([2]; Period A (250.2 PY)): 0 Event/PY
Injection Site Reaction, rate ([2]; Period A (250.2 PY)): 0.276 Event/PY
Lupus-like Syndrome, rate ([2]; Period A (250.2 PY)): 0 Event/PY
Lymphoma, rate ([2]; Period A (250.2 PY)): 0 Event/PY
Malignancies, excluding NMSC + lymphoma, rate ([2]; Period A (250.2 PY)): 0.008 Event/PY
Non-melanoma skin cancers, rate ([2]; Period A (250.2 PY)): 0.016 Event/PY
Tuberculosis (TB), rate ([2]; Period A (250.2 PY)): 0 Event/PY
AEs leading to withdrawal, rate ([2]; Period A (250.2 PYs)): 0.072 Event/PY
Any AE, rate ([2]; Period A (250.2 PYs)): 4.616 Event/PY
Serious AEs, rate ([2]; Period A (250.2 PYs)): 0.068 Event/PY
AEs leading to withdrawal, percentage ([2]; Period A (N = 814)): 1.7%
Allergic Reaction, percentage ([2]; Period A (N = 814)): 1%
Any AE, percentage ([2]; Period A (N = 814)): 62.2‡ %
Congestive Heart Failure, percentage ([2]; Period A (N = 814)): 1%
Demyelinating Disorder, percentage ([2]; Period A (N = 814)): 0%
Injection Site Reaction, percentage ([2]; Period A (N = 814)): 6.9%
Lupus-like Syndrome, percentage ([2]; Period A (N = 814)): 0%
Lymphoma, percentage ([2]; Period A (N = 814)): 0%
Malignancies, excluding NMSC + lymphoma, percentage ([2]; Period A (N = 814)): 0.2%
Non-melanoma skin cancers, percentage ([2]; Period A (N = 814)): 0.5%
Opportunistic Infections, excluding TB, percentage ([2]; Period A (N = 814)): 0%
Serious AEs, percentage ([2]; Period A (N = 814)): 1.8%
Serious Infectious AEs, percentage ([2]; Period A (N = 814)): 0.6%
Severe Infectious AEs, percentage ([2]; Period A (N = 814)): 0.7%
Tuberculosis (TB), percentage ([2]; Period A (N = 814)): 0%
Nasopharyngitis ([2]; Period A (N = 814), common AE ≧5%): 45 (5.3) n (%)
patients with serious AEs ([2]; Period A (weeks 0-16)): 1.8%
Nasopharyngitis [2, 10]: 5.3%
Sinusitis [2, 10]: 2.7%
upper respiratory tract infections [2, 10]: 7.2%
Any AE [3, 11]: 79 (74) n (%)
Any AE leading to discontinuation [3, 11]: 1 (1) n (%)
Any SAE [3, 11]: 2 (2) n (%)
Arthralgia ([3]; common AE in ≧5% of patients): 6 (6) n (%)
Gamma-Glutamyltransferase Increased ([3]; common AE in ≧5% of patients): 2 (2) n (%)
Headache ([3]; common AE in ≧5% of patients): 14 (13) n (%)
Nasopharyngitis ([3]; common AE in ≧5% of patients): 30 (28) n (%)
Nausea ([3]; common AE in ≧5% of patients): 4 (4) n (%)
Pruritus ([3]; common AE in ≧5% of patients): 4 (4) n (%)
Rhinitis ([3]; common AE in ≧5% of patients): 3 (3) n (%)
Rhinorrhea ([3]; common AE in ≧5% of patients): 3 (3) n (%)
Viral Infection ([3]; common AE in ≧5% of patients): 0 (0) n (%)
steady-state concentration ([4]; Week 11): 6.0 µg/mL
steady-state concentration ([4]; Week 12): 6.9 µg/mL
mean adalimumab serum concentration ([4]; Week 1): 6.0 µg/mL
mean adalimumab serum concentration ([4]; Week 2): 8.8 µg/mL
PASI 75 response rate [5, 12]: 75%
PASI 90 response rate [5, 12]: 47%
PASI 100 response rate [5, 12]: 18%
PASI 75 response rate [5, 13]: 73%
PASI 90 response rate [5, 13]: 53%
PASI 100 response rate [5, 13]: 32%
mean change from baseline in CRP (C-reactive protein (CRP); Ps group (without self-reported PsA)): −1.3
patients with elevated CRP at baseline who had a normal CRP (C-reactive protein (CRP); Ps group, Wk 16): 64.6%
mean change from baseline in CRP (C-reactive protein (CRP); PsA group): −6.3
patients with elevated CRP at baseline who had a normal CRP (C-reactive protein (CRP); PsA group, Week 16): 71.9%
patients changed from elevated CRP at baseline to a normal CRP (C-reactive protein (CRP); obese patients, Week 16): 64.1%
